Data as given in PMC3887258.

Tests used:
[1] = molecular target: Human metapneumovirus matrix protein (M), untagged (human metapneumovirus, strain NL1-00); assay: negative-stain electron microscopy, 2D class averages; free M in samples of 7.2 μM M incubated with 400 μM DOPC for 7 days at 37°C; 2% uranyl acetate
[2] = molecular target: Human metapneumovirus matrix protein (M), untagged (human metapneumovirus, strain NL1-00); assay: crystal structure; 2.8 Å, space group P3_(1); crystals from 20% PEG 6000, 100 mM Tris pH 8.0, 10 mM zinc chloride, 20°C; mixture of intact and proteolysed untagged M
[3] = molecular target: Human metapneumovirus matrix protein (M), untagged (human metapneumovirus, strain NL1-00); assay: SAXS; untagged M in 1 M NaCl buffer, or as 9:1 mixture with SUMO-3C-M in 1 M NDSB-201 buffer; 1 to 4 mg/ml; 20°C, BM29 ESRF; fitted with MD-based ensemble optimisation

Measured: stoichiometry N

Human metapneumovirus matrix protein (M), untagged (natural protein)
2: all assays above
